The text below walks through data of the nanobody polyreactivity screen of Harvey et al. (2022).

A short description of this data set: yeast display, Sf9 membrane polyspecificity reagent, FACS + sequencing; frameworks hold sequencing errors. The method, boiled down:
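In a synthetic yeast display library (Saccharomyces cerevisiae BJ5465), nanobody expression was induced with galactose for 36–48 hours. FACS gates were set low and high (top ~1%) using anti-HA fluorescence for expression and streptavidin fluorescence for binding of the Sf9 membrane reagent. Each polyreactivity label is drawn from the gate of origin.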
Turning to “QVQLVESGGGLVQAGGSLRLSCAASGIIFYTNAMGWYRQAPGKEREFVAAINTSGGITYYADSVKGRFTISRDNATNTVYLQMNSLKPEDTAVYYCAKDRRYRPPYGYEIEYAYWGQGTQVTVAS”, the “polyreactivity (PSR sort gate)” value is given as “low polyreactivity”.

Turning to “QVQLVESGGGLVQAGGSLRLSCAASGIIFYVYALGWYRQAPGKERELVAAISYTSSTYADSVKGLFTISRDNAKNTVYLQMNSLKPEDTAVYYCNTDYSDGYPAFDFWGQGTQVTVSS”, the “polyreactivity (PSR sort gate)” value is on record as “low polyreactivity”. Then “QVQLVESGGGLVQAGGSLRLSCAASGIIFYVYAMGWYRQAPGKERELVATITRRDDSTYYADSVKGRFTISRDNAKNTVYLQMNSLKPEDTAVSYCNADFWLLSEYDYWGQGTQVTVSS”, with “low polyreactivity”; and “QVQLVESGGGLVQAGGSLRLSCAASGIIFYYNAMGWYRPAPGNERELVAAISGRGGSTYYADSVKGRVTISRDNAKNTVYLQMTSLKPEDTAVYYCAAARVGSRYGYDYWGQGTQGTVSS”, with “low polyreactivity”. Then “QVQLVESGGGLVQAGGSLRLSCAASGIIFYYNAMGWYRQAPGKERELVASIRWRGGSTYYADSVKGRFTISRDNAKNTVYLQMNSLKPEDTAVYYCNVVKYVYIYSYWEYYYWGQGTQVTVSS”, with “low polyreactivity”; and “QVQLVESGGGLVQAGGSLRLSCAASGIIFYYYAKGWYRQSPGKERELVAAISSSGGRTRYADSVKGRFTISRDNAKNTVFLQMNSLKPEDSAVYYCAAEFIRGYGESYDYWGQGTQVTVSS”, with “low polyreactivity”. Then “QVQLVESGGGLVQAGGSLRLSCAASGIIFYYYAMGWYRQAPGKERELVAAIRSGGSTNYADSVKGRFTISRDNAKNTVYLQMNSLKPEDTAVYYCATRHDYLRAHYGYGSWGQGTQVTVSS”, with “low polyreactivity”. As to “QVQLVESGGGLVQAGGSLRLSCAASGIIFYYYAMGWYRQAPGKERELVAAISTSGGRTYYADSVKGRFTISRDNAKSTVYLQMNSLKPEDTAVYYCAKDFWYVTGGWSSGLDYWGQGTQVTVSS”, the “polyreactivity (PSR sort gate)” value is on record as “low polyreactivity”. Then “QVQLVESGGGLVQAGGSLRLSCAASGIIFYYYGMGWYRQAPGKEREFVAAISTSGGNTYYADSVKGRFTISRDNAKNTVYLQMNSLKPEDTAVYYCAADDLAWGDAGVDYWGQGTEVTVSS”, with “low polyreactivity”; and “QVQLVESGGGLVQAGGSLRLSCAASGIIFYYYGMGWYRQAPGKEREFVAAISTSGGNTYYADSVKGRFTISRDNAKNTVYLQMNSLKPEDTAVYYCAADDWPWGDAGVDYWGQGTQVTVSS”, with “low polyreactivity”; and “QVQLVESGGGLVQAGGSLRLSCAASGIIIGANAMGWYRQAPWKERELLAAITSGGSTYYADSVKGRFTISRDNAKNTVYLQMNSLKPEDTAVYYCAADVFWLYSFTIYDYWGQGTQVTVSS”, with “high polyreactivity”. Then “QVQLVESGGGLVQAGGSLRLSCAASGIIIGNNAMGWYRQAPGKERELVAAISRRGGSTYYADSVKGRFTISRDNAKNTVYLQMNSLKPEDTAVYYCAADIYRYNSYDYWGQGTQVTVSS”, with “low polyreactivity”; and “QVQLVESGGGLVQAGGSLRLSCAASGIIIVYNVMGWYRQAPGKERELVAAITNGDSTNYADSVKGRFTISRDNAKNTVYLQMNSLKPEDTAVYYCNVEGGYPLKYDYWGQGTQVSVSS”, with “low polyreactivity”. For “QVQLVESGGGLVQAGGSLRLSCAASGIIIWGNAMAWYRQAPGKERELVAAISSSSGSTYYADSVKGRFTISRDNAKNTVYLQMNRLKPVDTAVYYCAVDTPRSYRAQGAYYYWGQGTQVTVSS”, the “polyreactivity (PSR sort gate)” value is on record as “low polyreactivity”. Then “QVQLVESGGGLVQAGGSLRLSCAASGIIIWYNTMGWYRQAPGKEREFVARISRRVGSTYYADSVKGRFTISRDNAKNTVYLQMNSLKPEDTAVYYCAASPYQVRYQWGNRLDYWGQGTQVTVSS”, with “high polyreactivity”. Then “QVQLVESGGGLVQAGGSLRLSCAASGIIIYYNTMGWYRQAPGKEREFVDAISNSGGRTYYADSVKGRFTISRDNAKNTVYLQMNSLKPEDTADYYCAATYRQYSRSPWYYYCGQGTQVTVSS”, with “high polyreactivity”.

On to “QVQLVESGGGLVQAGGSLRLSCAASGIILDEYAMGVYSQAPGKERELVAAITWIGGSTYADSVKGRFTISRDNAKNTVYLQMNRLKPEDTAVYYCAADYPSLFVCYGYGWYNYDYWGQGTQVTVSS”, for which the “polyreactivity (PSR sort gate)” value was “low polyreactivity”. Then “QVQLVESGGGLVQAGGSLRLSCAASGIILGDYAMGWYRQAPGKERELVAAITSTGGRTYYADSVKGRFTISRDNAKNTVYLQMNSLKPEDTAVYYCAAQGSYRRYRPYYYWGQGTQVTVSS”, with “high polyreactivity”.

For the sequence “QVQLVESGGGLVQAGGSLRLSCAASGIILGVYAMGWYRQAPGKEREFVAAITSSGGSTYYADSVKGRFTISRDNAKNTVYLQMNSLKPEDTAVYYCAADFDTSVRLYGPTRYDYWGQGTQVTVSS”, the “polyreactivity (PSR sort gate)” value is given as “low polyreactivity”. Then “QVQLVESGGGLVQAGGSLRLSCAASGIILNYYAMGWYRQAPGKERELVAAISSGGTTYYADSVKGRFTISRDNAKNTVYLQMNSLKPEDTAVYYCNADYLYSRGGDWRWWDMDYWGQGTQVTVSS”, with “low polyreactivity”; and “QVQLVESGGGLVQAGGSLRLSCAASGIILPYYAMGWYRQAPGKEREFVATISSDGTSTYYADSVKGRFTISRDNAKNTVYLQMNSLKPEDTAVYDCAARIRQNPGGDNSWGQGTQVTVSS”, with “low polyreactivity”; and “QVQLVESGGGLVQAGGSLRLSCAASGIILRRYAMGWYRQAPGKERELVAAISSRGGSTYYADSVKGRFTISRDNAKNTVYLQMNSLKPEDTAVYYCANRPYGRSGGSRYDYWGQGTQVTVSS”, with “high polyreactivity”.

As for “QVQLVESGGGLVQAGGSLRLSCAASGIILRYYAMGWYRQAPGKERELVAAISGSGTRTYYADSVKGRFTISRDNAKNTVYLQMNSLKPEDTAVYYCAALVWGGYDYWGQGTQVTVSS”, the “polyreactivity (PSR sort gate)” value is on record as “high polyreactivity”. Then “QVQLVESGGGLVQAGGSLRLSCAASGIILYGYAMGWYRQAPGKERELVAAISRRGGITYYADSVKGRFTISRDNAKNTVYLQMNSLKPEDTAVYYCAADWYGYRQFHGYYWGQGTQVTVSS”, with “high polyreactivity”. Then “QVQLVESGGGLVQAGGSLRLSCAASGIILYPYAMGWYRQAPGKERELVAAISWSGGSTYYADSVKGRFTISRDNAKNTVYLQMNSLKPEDTAVYYCAARPRRRYYGYDSWGQGTQVTVSS”, with “high polyreactivity”. Then “QVQLVESGGGLVQAGGSLRLSCAASGIILYRYAMGWYRPAPGKERELVAAISRSGGNTYYADSVKGRFTISRDNAKNTVYLQMNSLKPEDTAVYYCAAKPLQGVRRVEYWGQGTQVTVSS”, with “high polyreactivity”; and “QVQLVESGGGLVQAGGSLRLSCAASGIILYYYAMGRYRPAPGKERELVASISRGDSTNYADSVKGRFTISRDNAKNTVYLQMNSLIPEDTAVYCNKDYLPSLYRGFDYWGQGTQVTVSS”, with “low polyreactivity”. As for “QVQLVESGGGLVQAGGSLRLSCAASGIILYYYAMGWYRQAPGKERELVAAISSGGNTYYADSVKGRFTISRDNAKNTVYLQMTSLKPEDTAVYYCAAVTVIGGEYDYWGQGTQVTVSS”, the “polyreactivity (PSR sort gate)” value is recorded as “low polyreactivity”. Then “QVQLVESGGGLVQAGGSLRLSCAASGIISAHYAMGWYRQAPGKERELVAAISSSGGSTYYADSVKGRFTISRDNAKNTVYLQMNSLKPEDTAVYYCNAEFYWGYDYWGQGTQVTVSS”, with “low polyreactivity”; and “QVQLVESGGGLVQAGGSLRLSCAASGIISGDYAMGWYRQAPGKERELVARITSGDSTNYADSVKGRFTISRDNAKNTVYLQMNSLNPEDTAVYYCAADRVWAYWTYGYWGQGTQVTVSS”, with “low polyreactivity”. Then “QVQLVESGGGLVQAGGSLRLSCAASGIISGEYAMGWYRQAPGKERELVAAIDYSGVSTYYADSVKGRFTISRDNAKNTVYLQMNSLKPEDTAVNYCAAYPSSEYDYWGQGTQVTVSS”, with “low polyreactivity”; and “QVQLVESGGGLVQAGGSLRLSCAASGIISPFYAMGWYRQATGKERELVADISTGGTTTYADSVKGRFTISRDNAKNTVYLQLNSLKPEDTAVYYCNAEVSLTYYWIVWASYDYWGQGTQVTVSS”, with “low polyreactivity”; and “QVQLVESGGGLVQAGGSLRLSCAASGIISRVYAMGWYRQAPGKERELVAAISGSGGTTYYADSVKGRFTISRDNAKNTVYLQMNSLKPEDTAVYYCAARYKALYDYWGQGTQVTVSS”, with “high polyreactivity”. For the sequence “QVQLVESGGGLVQAGGSLRLSCAASGIISSVYAMGWYRPAPGKERELVAAISGSGGSTYYADSVKGRFTISRDNAKNTVYLQMNSLKAEDTAVYYCAKGYQYQGNSYGYWGQGTQVTVSS”, the “polyreactivity (PSR sort gate)” value is “low polyreactivity”. Then “QVQLVESGGGLVQAGGSLRLSCAASGIIVDFYAMGWYRQAPGKERELVAGISWGGGTTYYADSVKGRFTISRDNAKNTVYLQMNSLKPEDTAVYYCAAVAFQTRYYYWGQGTQVTVSS”, with “high polyreactivity”. Regarding “QVQLVESGGGLVQAGGSLRLSCAASGIIVDYYAMGWYRQAPGKERELVATITSGGSTNYADSVKGRFTISRDNAKNTVYLPMNSVKPEDTAVYYCAARTYWFPDIYPGLGMDYWGQGTQVTVSS”, the “polyreactivity (PSR sort gate)” value is “low polyreactivity”. For “QVQLVESGGGLVQAGGSLRLSCAASGIIYIGNAMGWYRQAPGKERELVAAITYTGGSTYYADSVKGRFTISRDNAKNTVYLQMNSLKPEDTAVYYCDFDRTHLEDDYWGQGTQVTVSS”, the “polyreactivity (PSR sort gate)” value is listed as “low polyreactivity”. Then “QVQLVESGGGLVQAGGSLRLSCAASGIIYTTNAMGWYRQAPGKERELVAAIRRSGSTYYADSVKGRFTISRDNAKNNVYLQMNSLKPEDTAVYYCNAKVHYGSRGDYWGQGTQLTVSS”, with “low polyreactivity”. Then “QVQLVESGGGLVQAGGSLRLSCAASGIIYYLYAMGWYRHAPGKERELVATISRRGGSTYYADSVKGRFTISRDNAKNTVYLQMNSLKPEDTAVYYCATGHYSVGRSFSSGSYEYWGQGTQVTVSS”, with “high polyreactivity”; and “QVQLVESGGGLVQAGGSLRLSCAASGILFGPYAKGWYRQAPGKERELVAVISGSGGSTNYADSVKGRFTISRDNGKYTVYLQMNSLKPEVTAVYYCAADSLSKVCYYYWGEGTQVTVSS”, with “low polyreactivity”. Turning to “QVQLVESGGGLVQAGGSLRLSCAASGILFYLNAMGWYRQAPGKERELVASISTGGGTNYADSVKGRFTISRDYAKNTVYLQMNSLKPEDTAFYYCAAKRRNTYTLYYYWGQGTQVTVSS”, the “polyreactivity (PSR sort gate)” value is on record as “high polyreactivity”.
